Reference: patent publication US20190194249A1 (NATIONAL INSTITUTE OF ADVANCED INDUSTRIAL SCIENCE AND …, published 2019)

Molecular target: T1, pH 2.0-treated Fc (Fc region of human monoclonal IgG, acid-treated and neutralised) (human)
T1 construct: Dialysed at pH 2.0 for 12 h, then neutralised; also called acid-treated Fc region
Assay: SPR (Biacore T100), AF.ab9 immobilised on CM5, Fc region as analyte

B1: Polypeptide AF.ab9 (SEQ ID NO: 8) (peptide)
peptide: PNSGGGGSYDPETGTWPQEIRLILNW
notes: Chemically synthesised; 8-residue linker + 8-residue chignolin + 10-residue selected region
binding response relative to that on the acid-treated (non-native) Fab region: ≤ 0.01 fold
